Results as given in patent publication US20230083243A1 (VEGA THERAPEUTICS, published 2023).
Substitutions are numbered along the chain they refer to.

B1: Antibody 34 (antibody, V domains shown)
VH: QVQLQQSGTELVRPGTSVKMSCKAAGYTFTNHWIGWVKQRPGHGLEWIGDIYPGGGYTNYNEKFKGKASLTADTSSTTAYMQLSSLTSEDSAIYYCSRFGDQNWAWFAYWGQGTLVTVSA
VL: DIQMNQSPSSLSASLGDTITITCRASQNIHMWLSWYQQKPGNIPKLLIFKTSNLHTGVPSRFSGSGSGTDFTLTISSLQPEDIATYYCLQGQSYPFTFGGGTKLEIK
B2: Antibody 35 (antibody, V domains shown)
VH: QLQLQESGPGLVKPSETLSLTCTVSGGSITNSNYYWGWIRQPPGKGLEWIGSVYYSGTTYYNPSLKSRVTISVDPSKNQFSLKLSSVTAADTAVYYCVRESESYYYYGSDVWGQGTTVTVSS
VL: DIQMTQSPSSLSASVGDRVTITCRASQGINNYLAWFQQKPGKAPKSLIYAASSLQSGVPSKFSGSGSGTDFTLTISSLQPEDFATYYCQQYNSYPRTFGQGTKVEIK
notes: Human variable region with rat Fc
B3: Antibody 36 (antibody, V domains shown)
VH: EVQLVESGGGLVKPGGSLRLSCAASGFTFSSYNMNWVRQAPGRGLDWVSSISSSSSYIYYADSVKGRFTISRDNAKNSLYLQMNTLRAEDTAVYYCARDEEWELLTGFDYWGQGTLVTVSS
VL: B2 VL with S53N, S60L, R96I, K103R, V104L
notes: as for B2
B4: Antibody 38 (antibody, V domains shown)
VH: EVQLVESGGGLVKPGGSLRLSCAASGISFSNAWMSWVRQAPGKGLEWVGRIKANPDGGTTDYAAPVKGRFTISRDDSKNTLYLQMNSLKTEDTAVYYCTTELDILLWFTSFDYWGQGTLVTVSS
VL: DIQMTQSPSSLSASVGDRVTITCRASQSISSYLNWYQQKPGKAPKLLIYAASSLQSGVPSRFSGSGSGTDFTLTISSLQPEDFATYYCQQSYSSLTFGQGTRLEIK
notes: as for B2
B5: Antibody 40 (antibody, V domains shown)
VH: EVQLVESGGGLVQPGGSLRLSCAASGFTFSSYSMNWVRQAPGKGLEWVAYISSSTRTIFYADSVKGRFTISRDNAKNSLYLQMNSLRDEDTAFYYCARERSAFDYWGQGTLVTVSS
VL: SYVLTQPPSVSVAPGQTARITCGGDNIGGKSVHWYQQKPGQAPVMVVYDDSDRPSGIPERFAGSNSGNTATLAISRVEAGDEADYYCQVWEITSDHPAFGGGTRLTVL
notes: as for B2
B6: Antibody 42 (antibody, V domains shown)
VH: QVQLVQSGSEVKKPGASVKVSCKASGYTFTNYYIHWVRQAPGQGLEWMGIITPSGGTTSYAQKFQGRVTMTRDTSTNTVYMGLSSLRSEDTAMYYCARAGVQLDRRGWFDPWGQGTLVTVSS
VL: SYELTQPPSVSVSPGQTASITCSGDKLGDKYVFWYQQKPGQSPVLVIYQDSKRPSGIPERFSGSNSGNTATLTISGTQTMDEADYYCQAWDSSTVGFGGGTKLAVL
notes: as for B2

These binders were tested against T1, human Protein S (human, UniProt P07225 42-676) (assay: ELISA; plate coated with human Protein S; 1 µg/ml antibody; 1 mM calcium chloride).
T1 construct: also called ProS; ProS1
T1 sequence: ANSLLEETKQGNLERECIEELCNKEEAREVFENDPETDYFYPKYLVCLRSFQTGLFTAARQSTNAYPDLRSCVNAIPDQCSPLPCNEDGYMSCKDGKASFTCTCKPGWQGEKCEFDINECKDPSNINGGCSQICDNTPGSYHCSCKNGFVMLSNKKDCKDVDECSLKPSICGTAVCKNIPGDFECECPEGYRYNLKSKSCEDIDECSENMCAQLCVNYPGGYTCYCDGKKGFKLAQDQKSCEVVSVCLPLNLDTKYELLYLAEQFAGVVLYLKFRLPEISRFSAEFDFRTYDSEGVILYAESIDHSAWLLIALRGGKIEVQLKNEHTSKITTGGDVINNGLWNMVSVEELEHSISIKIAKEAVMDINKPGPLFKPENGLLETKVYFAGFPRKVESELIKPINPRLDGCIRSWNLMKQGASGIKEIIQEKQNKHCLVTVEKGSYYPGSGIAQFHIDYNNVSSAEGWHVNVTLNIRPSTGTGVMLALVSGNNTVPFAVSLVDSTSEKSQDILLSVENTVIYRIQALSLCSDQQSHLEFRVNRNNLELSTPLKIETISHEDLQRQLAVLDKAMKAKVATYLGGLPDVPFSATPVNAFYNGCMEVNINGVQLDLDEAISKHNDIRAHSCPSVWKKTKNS
Procedure: (§1) Calcium dependence of binding was determined using an ELISA based method. Briefly, high binding ELISA plates were coated with human Protein S. Then, buffer containing 1 μg/ml of antibody was applied to the well with either buffer containing 1 mM EDTA or 1 mM calcium chloride.

| Binder | Binding to Protein S in CaCl2 (OD) |
| --- | --- |
| B1 | 0.51 OD |
| B2 | 0.96 OD |
| B3 | 0.6 OD |
| B4 | 1.38 OD |
| B5 | 0.51 OD |
| B6 | 0.67 OD |

Each binder was assayed against T2, recombinant heavy chain Protein S (human, UniProt P07225 42-296) (assay: ELISA; plate coated with recombinant Protein S heavy chain; 1 mM CaCl2).
T2 construct: Fragment of Protein S spanning amino acids 42-296, expressed and purified from HEK293 cells; also called Protein S heavy chain; heavy chain of Protein S
T2 sequence: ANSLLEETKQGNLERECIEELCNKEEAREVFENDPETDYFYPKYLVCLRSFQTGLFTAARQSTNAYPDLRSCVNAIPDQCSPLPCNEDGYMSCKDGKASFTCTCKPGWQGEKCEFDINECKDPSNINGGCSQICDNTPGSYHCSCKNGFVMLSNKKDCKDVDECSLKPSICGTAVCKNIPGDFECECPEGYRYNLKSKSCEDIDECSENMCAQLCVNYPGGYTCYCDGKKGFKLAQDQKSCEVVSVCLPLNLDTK
Procedure: (§2) Binding to the heavy chain of Protein S was determined using an ELISA based method. Briefly, high binding ELISA plates were coated with recombinant heavy chain Protein S expressed and purified from HEK293 cells. The “heavy chain” of Protein S represents a fragment of Protein S spanning amino acids 42-296. The coated plate was blocked with 1% casein solution. Then, buffer containing […] of antibody was applied to the well with buffer containing 1 mM calcium chloride.

| Binder | Binding to heavy chain (OD) |
| --- | --- |
| B1 | 0.16 OD |
| B2 | 0.08 OD |
| B3 | 0.08 OD |
| B4 | 0.1 OD |
| B5 | 0.11 OD |
| B6 | 0.11 OD |

Each binder was assayed against T1, human Protein S (assay: cell-based or functional assay).

| Binder | IC50 APC | IC50 TFPI |
| --- | --- | --- |
| B1 | 95.8 nM | – |
| B2 | 371 nM | – |
| B3 | 15.3 nM | 6.05 nM |
| B4 | 84 nM | – |
| B5 | 11.9 nM | – |
| B6 | 215 nM | – |

These binders were tested against T2, recombinant heavy chain Protein S (assay: ELISA on recombinant Protein S heavy chain).
Procedure: as §2

| Binder | binding result |
| --- | --- |
| B1 | no binding |
| B2 | no binding |
| B3 | no binding |
| B4 | no binding |
| B5 | no binding |
| B6 | no binding |

The binders below were run against T1, human Protein S (assay: ELISA; plate coated with human Protein S; 1 µg/ml antibody; 1 mM EDTA).
Procedure: as §1

| Binder | Binding to Protein S in EDTA (OD) |
| --- | --- |
| B1 | 0.06 OD |
| B2 | 0.11 OD |
| B3 | 0.03 OD |
| B4 | 0.09 OD |
| B5 | 0.11 OD |
| B6 | 0.53 OD |
